Our source for the AmyQ secretion efficiency values is the supplement of paper PMC9942255.

Where “and” joins values, the source holds several entries; their conditions need not be identical. Equal values may be shown once.

For this data set, the system named is Bacillus subtilis DB104 (SP-AmyQ fusion secretion). The experiment in a line: AmyQ secretion efficiency, weighted average sort bin (1 = best secretion, 10 = worst) (bin number (weighted average, 1-10)); higher = lower secretion efficiency. The essentials:
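B. subtilis DB104 library expressing mature AmyQ fused to designed signal peptides (amyE-integrated) was encapsulated at about 0.3 cells per ~65 nL alginate bead with fluorescein-starch, grown about 13 h at room temperature and nile red stained. Occupied beads were sorted by large-particle flow cytometry into 10 equally populated bins by green/red fluorescence ratio, and each bin's amplicons were Illumina-sequenced. Secretion score is the read-frequency-weighted average bin number, normalised to beads per bin, excluding low-abundance sequences.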

In the case of MKKWLIIAVSLAIAIVLFMYTAGEAKAAGM, the AmyQ secretion efficiency turned out to be 2.74.

As for MKKWLIIAVSLAIAIVLFMYTKGEAKAAED, the AmyQ secretion efficiency came out at 2.66.

In turn, MKKWLIIAVSLAIAIVLFMYTKGEAKAAGK had an AmyQ secretion efficiency of 2.87.

With MKKWLIIAVSLAIAIVLFMYTKGEAKTAGM, the AmyQ secretion efficiency amounted to 4.28.

On to MKKWLIIAVSLAIAIVLFMYTKGEAKVAGM, for which the AmyQ secretion efficiency came out at 5.3.

In turn, MKKWLIIAVSLAIAIVLFMYTKGEKKAAGM came in with an AmyQ secretion efficiency of 5.84.

For the sequence MKKWLIIAVSLAIAIVLFMYTKGEPKAAGM, the AmyQ secretion efficiency is 5.65.

Sequence MKKWLIIAVSLAIAIVLFMYTKGEQKAAGM displayed an AmyQ secretion efficiency of 6.98.

MKKWLIIAVSLAIAIVLFMYTKGETKAAGM returned an AmyQ secretion efficiency of 3.24.

The sequence MKKWLIIAVSLAIAIVLFRRKKGRAKAAGM showed an AmyQ secretion efficiency of 5.92.

Regarding MKKWLIIAVSLAIMYTKGEAKAAGM, the AmyQ secretion efficiency was found to be 2.92.

Consider MKKWLKKKRKKAIAIVLFMYTKGEAKAAGM, for which the AmyQ secretion efficiency was 7.14.

As to MKKWLKRKKSLAIAIVLFMYTKGEAKAAGM, the AmyQ secretion efficiency is 7.31.

For the sequence MKKWLRRAVSLAIAIVLFMYTKGEAKAAGM, the AmyQ secretion efficiency was found to be 2.72.

In the case of MKKWMAGLFLAAAVLLCLKRRRKRIQGASS, the AmyQ secretion efficiency is 6.89.

MKKWMAGLFLAAAVLLCLLVTSLMVPQQIQGASS showed an AmyQ secretion efficiency of 4.31.

As to MKKWMAGLFLAAAVLLCLMIQGASS, the AmyQ secretion efficiency came out at 3.95.

With MKKWMAGLFLAAAVLLCLMVPQQCQGASS, the AmyQ secretion efficiency was found to be 2.09.

Take MKKWMAGLFLAAAVLLCLMVPQQGQGASS: the AmyQ secretion efficiency is 6.52.

MKKWMAGLFLAAAVLLCLMVPQQIQFASS registered an AmyQ secretion efficiency of 5.75.

On to MKKWMAGLFLAAAVLLCLMVPQQIQGASS, for which the AmyQ secretion efficiency is 4.93 and 4.6 and 5.33.

In turn, MKKWMAGLFLAAAVLLCLMVPQQIQGDED gave an AmyQ secretion efficiency of 8.35.

MKKWMAGLFLAAAVLLCLMVPQQIQGKKK came in with an AmyQ secretion efficiency of 4.71.

Take MKKWMAGLFLAAAVLLCLMVPQQIQPASS: the AmyQ secretion efficiency came to 7.7.

MKKWMAGLFLAAAVLLCLMVPQQKQGASS returned an AmyQ secretion efficiency of 3.94.

For the sequence MKKWMAGLFLAAAVLLCLMVPQQLQGASS, the AmyQ secretion efficiency came out at 5.67.

MKKWMAGLFLAAAVLLCLMVPQQMQGASS had an AmyQ secretion efficiency of 5.46.

Regarding MKKWMAGLFLAAAVLLCLMVPQQQQGASS, the AmyQ secretion efficiency worked out at 6.69.

MKKWMAGLFLAAAVLLCLMVPQQSQGASS registered an AmyQ secretion efficiency of 5.65.

Sequence MKKWMAGLFLAAAVLLCLMVPQQTTGTSGSVIQGASS returned an AmyQ secretion efficiency of 4.56.

For the sequence MKKWMAGLFLAAAVLLCLMVPQQVQGASS, the AmyQ secretion efficiency came to 3.15.

In the case of MKKWMAGLFLAAAVLLCLMVPQQYQGASS, the AmyQ secretion efficiency was determined as 6.35.

Take MKKWMALTSGLFLAAAVLLCLMVPQQIQGASS: the AmyQ secretion efficiency was 4.17.

MKKWMASQKKSTQVLLCLMVPQQIQGASS gave an AmyQ secretion efficiency of 7.24.

Regarding MKKWMASTSFSMGLFLAAAVLLCLMVPQQIQGASS, the AmyQ secretion efficiency turned out to be 5.01.

Consider MKKWMATGSLAAAVLLCLMVPQQIQGASS, for which the AmyQ secretion efficiency was determined as 2.83.

Consider MKKWMILILAGIALFVFISPLKSHKT, for which the AmyQ secretion efficiency was 7.86.

For the sequence MKKWMITIAMLILAGIALFVFIDPLKSHKT, the AmyQ secretion efficiency is 6.61.

Turning to MKKWMITIAMLILAGIALFVFIFSPLKSHKT, the AmyQ secretion efficiency turned out to be 7.63.

In the case of MKKWMITIAMLILAGIALFVFIRKKRRLKSHKT, the AmyQ secretion efficiency was found to be 6.07.

As for MKKWMITIAMLILAGIALFVFIRKLKSHKT, the AmyQ secretion efficiency turned out to be 7.72.

The sequence MKKWMITIAMLILAGIALFVFISPFKSHKT had an AmyQ secretion efficiency of 6.23.

MKKWMITIAMLILAGIALFVFISPIKSHKT came in with an AmyQ secretion efficiency of 6.77.

MKKWMITIAMLILAGIALFVFISPLKGHKT showed an AmyQ secretion efficiency of 6.29.

Regarding MKKWMITIAMLILAGIALFVFISPLKRHKT, the AmyQ secretion efficiency stood at 7.32.

As for MKKWMITIAMLILAGIALFVFISPLKSHKT, the AmyQ secretion efficiency is 6.27 and 6.6 and 6.11.

Take MKKWMITIAMLILAGIALFVFISPLKWHKT: the AmyQ secretion efficiency stood at 5.74.

For MKKWMITIAMLILAGIALFVFISPNKSHKT, the AmyQ secretion efficiency was found to be 5.8.

Consider MKKWMITIAMLILAGIALFVFISPPKSHKT, for which the AmyQ secretion efficiency was determined as 5.84.

With “MKKWMITIAMLILAGIALFVFISPPPFFTAVPSTVLKSHKT”, the AmyQ secretion efficiency amounted to 6.23.

On to MKKWMITIAMLILAGIALFVFISPRKSHKT, for which the AmyQ secretion efficiency is 4.44.

The sequence MKKWMITIAMLILAGIALFVFISPSKSHKT returned an AmyQ secretion efficiency of 6.65.

MKKWMITIAMLILAGIALFVFISPTKSHKT yielded an AmyQ secretion efficiency of 7.06.

In turn, MKKWMITIAMLILAGIALFVFISPTSSSTTFLKSHKT displayed an AmyQ secretion efficiency of 7.57.

Take MKKWMITIAMLILAGIALFVFISPVKSHKT: the AmyQ secretion efficiency is 6.53.

MKKWMITIAMLILAGIALFVFISPWKSHKT gave an AmyQ secretion efficiency of 6.16.

For MKKWMITIAMLILAGIALFVFISPYKSHKT, the AmyQ secretion efficiency was 6.74.

In turn, MKKWMITIAMLKKAGIALFVFISPLKSHKT registered an AmyQ secretion efficiency of 6.51.

Sequence MKKWMITIAMLKKKRRRLFVFISPLKSHKT had an AmyQ secretion efficiency of 7.47.

MKKWMITIAMLKRRRIALFVFISPLKSHKT showed an AmyQ secretion efficiency of 7.36.

The sequence MKKWMITIAMRTLAGIALFVFISPLKSHKT gave an AmyQ secretion efficiency of 7.06.

For MKKWMITIAMSTYTYYTLFVFISPLKSHKT, the AmyQ secretion efficiency was found to be 5.78.

MKKWMITIAMSYTSTKRYFVFISPLKSHKT had an AmyQ secretion efficiency of 7.55.

Sequence MKKWMITIAMTMLILAGIALFVFISPLKSHKT had an AmyQ secretion efficiency of 1.1.

As to MKKWRGGSQSGAIAIVLFMYTKGEAKAAGM, the AmyQ secretion efficiency came out at 6.49.

Take MKKWRKRLIIAVSLAIAIVLFMYTKGEAKAAGM: the AmyQ secretion efficiency came to 3.1.

Regarding MKKWRYTKRQRKLILAGIALFVFISPLKSHKT, the AmyQ secretion efficiency was 6.51.

For the sequence MKKWSTTIAMLILAGIALFVFISPLKSHKT, the AmyQ secretion efficiency was determined as 5.92.

As to MKKWTIIAVSLAIAIVLFMYTKGEAKAAGM, the AmyQ secretion efficiency was found to be 2.14.

In turn, MKKWTNMSLLIIAVSLAIAIVLFMYTKGEAKAAGM showed an AmyQ secretion efficiency of 2.33.

For the sequence MKLAKRGKSYYPYTSLAITAKAKEL, the AmyQ secretion efficiency amounted to 8.51.

For the sequence MKLAKRINMVSALTPSTTLAITAKAKEL, the AmyQ secretion efficiency came out at 7.42.

MKLAKRNFMISMVSALTPSTTLAITAKAKEL showed an AmyQ secretion efficiency of 7.41.

The sequence MKLAKRTSALTPSTTLAITAKAKEL came in with an AmyQ secretion efficiency of 6.93.

MKLAKRVKRRKRKTTLAITAKAKEL: the AmyQ secretion efficiency came out at 7.36.

With MKLAKRVRKLTPSTTLAITAKAKEL, the AmyQ secretion efficiency amounted to 8.89.

As to MKLAKRVRRKRPSTTLAITAKAKEL, the AmyQ secretion efficiency amounted to 6.87.

With MKLAKRVSALTPSTTLAIATAKAKEL, the AmyQ secretion efficiency is 7.06.

As for MKLAKRVSALTPSTTLAIATVLATAKAKEL, the AmyQ secretion efficiency came out at 6.28.

Take MKLAKRVSALTPSTTLAIEAKAKEL: the AmyQ secretion efficiency is 7.23.

In turn, MKLAKRVSALTPSTTLAIEEEEAKAKEL returned an AmyQ secretion efficiency of 7.01.

Take MKLAKRVSALTPSTTLAIISTGSAKAKEL: the AmyQ secretion efficiency was 7.54.

MKLAKRVSALTPSTTLAIKKKKRAKAKEL returned an AmyQ secretion efficiency of 7.08.

For MKLAKRVSALTPSTTLAITAKAAED, the AmyQ secretion efficiency was 5.72.

MKLAKRVSALTPSTTLAITAKAAPD returned an AmyQ secretion efficiency of 7.89.

As for MKLAKRVSALTPSTTLAITAKAAPK, the AmyQ secretion efficiency stood at 7.94.

In turn, MKLAKRVSALTPSTTLAITAKAAPL displayed an AmyQ secretion efficiency of 8.19.

MKLAKRVSALTPSTTLAITAKAARK: the AmyQ secretion efficiency was 7.54.

Sequence MKLAKRVSALTPSTTLAITAKADEE returned an AmyQ secretion efficiency of 6.16.

As for MKLAKRVSALTPSTTLAITAKCKEL, the AmyQ secretion efficiency amounted to 7.76.

MKLAKRVSALTPSTTLAITAKDKEL: the AmyQ secretion efficiency was determined as 6.63.

As to MKLAKRVSALTPSTTLAITAKEKEL, the AmyQ secretion efficiency amounted to 7.18.

Sequence MKLAKRVSALTPSTTLAITAKFKEL gave an AmyQ secretion efficiency of 7.68.

In turn, MKLAKRVSALTPSTTLAITAKGKEL came in with an AmyQ secretion efficiency of 7.3.

Sequence MKLAKRVSALTPSTTLAITAKHKEL returned an AmyQ secretion efficiency of 6.77.

Sequence MKLAKRVSALTPSTTLAITAKIKEL had an AmyQ secretion efficiency of 7.25.

Take MKLAKRVSALTPSTTLAITAKKKEL: the AmyQ secretion efficiency was determined as 7.78.

MKLAKRVSALTPSTTLAITAKLKEL gave an AmyQ secretion efficiency of 6.8.

In turn, MKLAKRVSALTPSTTLAITAKMKEL displayed an AmyQ secretion efficiency of 6.79.

With MKLAKRVSALTPSTTLAITAKNKEL, the AmyQ secretion efficiency came out at 8.25.

The sequence MKLAKRVSALTPSTTLAITAKPKEL returned an AmyQ secretion efficiency of 6.44.

MKLAKRVSALTPSTTLAITAKRKEL returned an AmyQ secretion efficiency of 8.52.

In the case of MKLAKRVSALTPSTTLAITAKSKEL, the AmyQ secretion efficiency is 7.27.

MKLAKRVSALTPSTTLAITAKTKEL: the AmyQ secretion efficiency came to 7.68.

Consider MKLAKRVSALTPSTTLAITAKVKEL, for which the AmyQ secretion efficiency is 6.33.

Sequence MKLAKRVSALTPSTTLAITAKYKEL showed an AmyQ secretion efficiency of 5.07.

Sequence MKLAKRVSALTPSTTLAITCKAKEL returned an AmyQ secretion efficiency of 7.57.

MKLAKRVSALTPSTTLAITDKAKEL displayed an AmyQ secretion efficiency of 7.38.

MKLAKRVSALTPSTTLAITEKAKEL yielded an AmyQ secretion efficiency of 7.31.

On to MKLAKRVSALTPSTTLAITFKAKEL, for which the AmyQ secretion efficiency is 6.49.
